For the data set, the system named is Bacillus subtilis. Description: cleaved RNA product abundance (RNA/gDNA barcode ratio) relative to median wild-type variant (ratio to wild type); higher = more accumulation of the downstream cleavage product. To be noted: cleavage site: cggR-gapA (positions -7 to +36 mutated). In a few lines:
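In LB at 37°C, B. subtilis cultures went from OD600 0.0003 to 0.3. Their chromosomes held barcoded reporter mRNAs, truncated aprE or tetM, with RNase Y cleavage-site windows mutagenized via oligos at a 9% error rate. Cleaved RNA, chosen by gel, was reverse transcribed and barcode-sequenced alongside genomic DNA barcodes with UMI collapsing, giving a per-construct RNA:gDNA ratio scaled to the median construct with the unmutated site. This scaled ratio is termed cleaved product abundance.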

[1] abbreviates: experiment (reporter, strain, medium): exp 4a: truncated aprE reporter, strain BJT201 with 2% xylose (RNase J1 expressed).
Where [2] appears, read: experiment (reporter, strain, medium): exp 2b: truncated aprE reporter, strain BJT200.
The mark [3] stands for this setting: experiment (reporter, strain, medium): exp 6: tetM reporter, strain 168.

As to “ACAGACGAAGGAGCCGCAAAGCAATTATTAAGGGATGAATAATCCCTCAATATAAATATCTCTCACTTATTTAAA”, the “cleaved RNA product abundance” value under setting [1] is 0.718. The same measure, in the same setting: the value for “ACAGACGAAGGAGCCGCAAAGCAGTTAATAAGGGATGAATAATCCCTCAATATAAATATCTCTCACTTATTTAAA” was 0.298. For the sequence “ACAGACGAAGGAGCCGCAAAGCAGTTATTAAAGGATGAATAATCCCTCAATATAAATATCTCTCACTTATTTAAA”, the “cleaved RNA product abundance” value under setting [2] was 0.136. For the sequence “ACAGACGAAGGAGCCGCAAAGCAGTTATTAAGGAATGAATAATCCCTCAATATAAATATCTCTCACTTATTTAAA”, the “cleaved RNA product abundance” value under setting [1] was determined as 0.0974.

In the case of “ACAGACGAAGGAGCCGCAAAGCAGTTATTAAGGGAAGAATAATCCCTCAATATAAATATCTCTCACTTATTTAAA”, the “cleaved RNA product abundance” value under setting [1] was determined as 0.561. Still for that read-out and setting: the same measure for “ACAGACGAAGGAGCCGCAAAGCAGTTATTAAGGGATAAATAATCCCTCAATATAAATATCTCTCACTTATTTAAA”: 0.625; for “ACAGACGAAGGAGCCGCAAAGCAGTTATTAAGGGATGAAAAATCCCTCAATATAAATATCTCTCACTTATTTAAA”: 0.687. “ACAGACGAAGGAGCCGCAAAGCAGTTATTAAGGGATGAATAACCCCTCAATATAAATATCTCTCACTTATTTAAA”: the “cleaved RNA product abundance” value under setting [1] stood at 0.275. Same read-out and setting: the value for “ACAGACGAAGGAGCCGCAAAGCAGTTATTAAGGGATGAATAATCCATCAATATAAATATCTCTCACTTATTTAAA” was 0.172.

For “ACAGACGAAGGAGCCGCAAAGCAGTTATTAAGGGATGAATAATCCCTAAATATAAATATCTCTCACTTATTTAAA”, the “cleaved RNA product abundance” value under setting [1] was 0.591. Still for that read-out and setting: the same measure for “ACAGACGAAGGAGCCGCAAAGCAGTTATTAAGGGATGAATAATCCCTCAAAATAAATATCTCTCACTTATTTAAA”: 0.468. With “ACAGACGAAGGAGCCGCAAAGCAGTTATTAAGGGATGAATAATCCCTCAACATAAATATCTCTCACTTATTTAAA”, the “cleaved RNA product abundance” value under setting [1] was determined as 0.118.

For “ACAGACGAAGGAGCCGCAAAGCAGTTATTAAGGGATGAATAATCCCTCAATATAAATATCTCTCACTTATTTAAA”, the “cleaved RNA product abundance” value under setting [2] worked out at 0.905, the “cleaved RNA product abundance” value under setting [1] is 0.958 and the “cleaved RNA product abundance” value under setting [3] was determined as 0.944. Turning to “ACAGACGAAGGAGCCGCAAAGCAGTTATTAAGGGATGAATAATCCCTCAATATATATATCTCTCACTTATTTAAA”, the “cleaved RNA product abundance” value under setting [1] came to 0.687. The same measure, in the same setting: the same measure for “ACAGACGAAGGAGCCGCAAAGCAGTTATTAAGGGATGAATAATCCTTCAATATAAATATCTCTCACTTATTTAAA”: 0.526. For “ACAGACGAAGGAGCCGCAAAGCAGTTATTAAGGGATGAATAATCGCTCAATATAAATATCTCTCACTTATTTAAA”, under setting [2], the “cleaved RNA product abundance” value amounted to 0.083. Turning to “ACAGACGAAGGAGCCGCAAAGCAGTTATTAAGGGATGAATATTCCCTCAATATAAATATCTCTCACTTATTTAAA”, the “cleaved RNA product abundance” value under setting [2] turned out to be 0.832 and the “cleaved RNA product abundance” value under setting [1] is 0.898.

As for “ACAGACGAAGGAGCCGCAAAGCAGTTATTAAGGGATGAGTAATCCCTCAATATAAATATCTCTCACTTATTTAAA”, the “cleaved RNA product abundance” value under setting [1] worked out at 0.658. For “ACAGACGAAGGAGCCGCAAAGCAGTTATTAAGGGATGCATAATCCCTCAATATAAATATCTCTCACTTATTTAAA”, the “cleaved RNA product abundance” value under setting [2] was determined as 0.0725. With “ACAGACGAAGGAGCCGCAAAGCAGTTATTAAGGTATGAATAATCCCTCAATATAAATATCTCTCACTTATTTAAA”, the “cleaved RNA product abundance” value under setting [1] turned out to be 0.0937. Same read-out and setting: the same measure for “ACAGACGAAGGAGCCGCAAAGCAGTTATTAAGTGATGAATAATCCCTCAATATAAATATCTCTCACTTATTTAAA”: 0.0809. As for “ACAGACGAAGGAGCCGCAAAGCAGTTATTAATGGATGAATAATCCCTCAATATAAATATCTCTCACTTATTTAAA”, under setting [1], the “cleaved RNA product abundance” value came to 0.171.

Consider “ACAGACGAAGGAGCCGCAAAGCATTTATTAAGGGATGAATAATCCCTCAATATAAATATCTCTCACTTATTTAAA”, for which the “cleaved RNA product abundance” value under setting [1] came out at 0.256. On to “ACAGACGAAGGAGCCGCAAAGGAATTATTAAGGGATGAATAATCCCTCAATATAAATATCTCTCACTTATTTAAA”, for which, under setting [1], the “cleaved RNA product abundance” value was found to be 0.671. Still for that read-out and setting: the value for “ACAGACGAAGGAGCCGCAAAGGACTTATTAAGGGATGAATAATCCCTCAATATAAATATCTCTCACTTATTTAAA” was 0.173. Consider “ACAGACGAAGGAGCCGCAAAGGAGCTATTAAGGGATGAATAATCCCTCAATATAAATATCTCTCACTTATTTAAA”, for which the “cleaved RNA product abundance” value under setting [2] amounted to 0.502. On to “ACAGACGAAGGAGCCGCAAAGGAGTTAATAAGGGATGAATAATCCCTCAATATAAATATCTCTCACTTATTTAAA”, for which the “cleaved RNA product abundance” value reads like this: under setting [2], 0.34; under setting [1], 0.436.

“ACAGACGAAGGAGCCGCAAAGGAGTTATTAAAGGATGAATAATCCCTCAATATAAATATCTCTCACTTATTTAAA”: the “cleaved RNA product abundance” value under setting [2] is 0.161 and the “cleaved RNA product abundance” value under setting [1] was determined as 0.108. Take “ACAGACGAAGGAGCCGCAAAGGAGTTATTAAGAGATGAATAATCCCTCAATATAAATATCTCTCACTTATTTAAA”: the “cleaved RNA product abundance” value under setting [1] is 0.199. Same read-out and setting: the same measure for “ACAGACGAAGGAGCCGCAAAGGAGTTATTAAGGAATGAATAATCCCTCAATATAAATATCTCTCACTTATTTAAA”: 0.144.

On to “ACAGACGAAGGAGCCGCAAAGGAGTTATTAAGGGAAGAATAATCCCTCAATATAAATATCTCTCACTTATTTAAA”, for which the “cleaved RNA product abundance” value under setting [2] is 0.495. “ACAGACGAAGGAGCCGCAAAGGAGTTATTAAGGGATAAATAATCCCTCAATATAAATATCTCTCACTTATTTAAA”: the “cleaved RNA product abundance” value reads like this: under setting [2], 0.828; under setting [1], 0.789. Regarding “ACAGACGAAGGAGCCGCAAAGGAGTTATTAAGGGATGAAAAATCCCTCAATATAAATATCTCTCACTTATTTAAA”, under setting [1], the “cleaved RNA product abundance” value amounted to 0.576. The same measure, in the same setting: the value for “ACAGACGAAGGAGCCGCAAAGGAGTTATTAAGGGATGAAGAATCCCTCAATATAAATATCTCTCACTTATTTAAA” was 0.859. In the case of “ACAGACGAAGGAGCCGCAAAGGAGTTATTAAGGGATGAATAATACCTCAATATAAATATCTCTCACTTATTTAAA”, the “cleaved RNA product abundance” value runs as follows: under setting [2], 0.131; under setting [1], 0.192. Consider “ACAGACGAAGGAGCCGCAAAGGAGTTATTAAGGGATGAATAATCCCCCAATATAAATATCTCTCACTTATTTAAA”, for which the “cleaved RNA product abundance” value under setting [1] was determined as 0.247.

With “ACAGACGAAGGAGCCGCAAAGGAGTTATTAAGGGATGAATAATCCCTCAATAAAAATATCTCTCACTTATTTAAA”, the “cleaved RNA product abundance” value under setting [2] came out at 0.165. On to “ACAGACGAAGGAGCCGCAAAGGAGTTATTAAGGGATGAATAATCCCTCAATATAAATATCTCTCACTTATTTAAA”, for which the “cleaved RNA product abundance” value worked out at 1.06 under setting [2], 0.982 under setting [1] and 0.911 under setting [3]. Consider “ACAGACGAAGGAGCCGCAAAGGAGTTATTAAGGGATGAATAATCCCTCAATATCAATATCTCTCACTTATTTAAA”, for which the “cleaved RNA product abundance” value under setting [1] came out at 0.134. For the sequence “ACAGACGAAGGAGCCGCAAAGGAGTTATTAAGGGATGAATAATCCCTCACTATAAATATCTCTCACTTATTTAAA”, under setting [1], the “cleaved RNA product abundance” value is 0.302.

“ACAGACGAAGGAGCCGCAAAGGAGTTATTAAGGGATGAATAATCCCTGAATATAAATATCTCTCACTTATTTAAA”: the “cleaved RNA product abundance” value under setting [1] turned out to be 0.361.

“ACAGACGAAGGAGCCGCAAAGGAGTTATTAAGGGATGAATAATTCCTCAATATAAATATCTCTCACTTATTTAAA”: the “cleaved RNA product abundance” value under setting [2] was determined as 0.328. On to “ACAGACGAAGGAGCCGCAAAGGAGTTATTAAGGGATGACTAATCCCTCAATATAAATATCTCTCACTTATTTAAA”, for which the “cleaved RNA product abundance” value is 0.423 under setting [2] and 0.596 under setting [1].

The values above are taken from the supplement of paper PMC11780869.
